{"source": "paper PMC10951066", "about": "“The self-reactive FVIII T cell repertoire in healthy individuals relies on a short set of epitopes and public clonotypes” (Frontiers in Immunology, 2024)", "key": {"[1]": {"tested_on": "CD4 T cells from healthy donors", "assay": "CD134/CD137 activation-induced marker flow cytometry of pooled specific T cell lines", "type": "cell-based, human", "settings": "four donors, overnight re-stimulation with antigen-loaded DCs, unstimulated control removed", "experimental": "Positive antigen-specific T cell lines determined by using the ELISPOT assay were pooled together at day 21, after 24 h of resting in IMDM medium and with the absence of cytokine stimuli. The pooled T cell lines were re-stimulated overnight with autologous DCs alone (control) or with DCs previously loaded with either 0.2 µM of rFVIII, 0.2 µM of ovalbumin, or 0.25 µM of KLH. Following 24 h of stimulation, cells were harvested in cell staining buffer (phosphate-buffered saline/EDTA 2 mM/bovine serum albumin 0.5%) and then stained for CD4 (Vio-Blue, clone REA623, Miltenyi Biotec) and activation-induced markers CD134 (OX-40) (PE anti-human, clone Ber-ACT35, Biolegend) and CD137 (4-1BB) (APC anti-human, clone 4B4-1, Biolegend). The CD4/CD134/CD137-positive population for each condition was sorted by flow cytometry ([…] III; Becton Dickinson, San Jose, CA, USA).\nFirstly, we aimed to characterize the T cell response to rFVIII in vitro using chicken ovalbumin (Ova) as a non-self-protein benchmark. Given the low frequency of FVIII-specific T cells in healthy donors, we enriched the CD4 population in vitro before analyzing their specificity and sorting them for TCR CDR3β sequencing (Figure 1A). […] Antigen specificity was assessed using the IFN-γ ELISPOT assay. […] The average number per donor of detected clonotypes was 535 and 918, for a total of 2,143 and 3,672 clonotypes detected for FVIII and Ova. […]"}, "[2]": {"tested_on": "CD4 T cells from healthy donors", "assay": "IFN-γ ELISPOT of CD4 T cell lines raised against rFVIII, ovalbumin or KLH (four donors)", "type": "cell-based, human", "from_the_text": "PBMCs were purified from the whole blood of anonymous healthy donors, who gave informed consent (Etablissement Français du Sang, Rungis, France), using Ficoll-Paque®. Monocyte-derived dendritic cells (DCs) were produced from cells isolated using Percoll gradient by 5 days of culture in AIM-V medium (Invitrogen, Villebon-sur-Yvette, France) supplemented with 1,000 U/ml recombinant human (rh) IL-4 and rhGM-CSF (both from R&D Systems, Lille, France). Mature DCs were produced by two supplementary days of culture in the presence of LPS (1 µg/ml) and R848 (10µg/ml). CD4 T cells were isolated from autologous PBMCs by positive selection using magnetic labeling with anti-CD4 mAbs conjugated to magnetic microbeads followed by magnetic cell sorting, as recommended by the manufacturer (Miltenyi Biotec, Bergisch Gladbach, Germany). Immature DCs were loaded overnight at 37 °C with either 0.2 µM of rFVIII, 0.2 µM of ovalbumin, or 0.25 µM of KLH in 96-well U-bottom plates, while mature DCs were used for FVIII peptides (10 ug/ml). […] 10,000 lymphocytes were collected at day 19 from each T cell line (expanded T cells contained in one well) and their specificity was assessed by using IFN-g ELISPOT.\nT cells were incubated with autologous DCs alone (control) or with DCs incubated with rFVIII (0.2 µM), ovalbumin (3 µM), and KLH (1 µM) or PBMCs for FVIII peptides (10 µg/ml) in MultiScreen 96-well plates (Merck Millipore) previously coated with 2.5 µg/mL of anti-human IFN-γ monoclonal antibody (mAb; 1-D1K; Mabtech). […] The spot number was determined by using the ELISPOT Reader System (Autoimmun Diagnostika, Ebinger, Germany). HLA restriction was assessed using monoclonal antibodies (10 μg/ml) specific to HLA-DP (B7/21), HLA-DQ (SPVL3), or HLA-DR (L243).\nFirstly, we aimed to characterize the T cell response to rFVIII in vitro using chicken ovalbumin (Ova) as a non-self-protein benchmark. […] Antigen specificity was assessed using the IFN-γ ELISPOT assay. […] The average number per donor of detected clonotypes was 535 and 918, for a total of 2,143 and 3,672 clonotypes detected for FVIII and Ova. […]"}}, "data": [{"molecule": "ovalbumin: chicken ovalbumin, non-self-protein benchmark (protein, UniProt P01012 2-386, looked up) Ovalbumin: GSIGAASMEFCFDVFKELKVHHANENIFYCPIAIMSALAMVYLGAKDSTRTQINKVVRFDKLPGFGDSIEAQCGTSVNVHSSLRDILNQITKPNDVYSFSLASRLYAEERYPILPEYLQCVKELYRGGLEPINFQTAADQARELINSWVESQTNGIIRNVLQPSSVDSQTAMVLVNAIVFKGLWEKAFKDEDTQAMPFRVTEQESKPVQMMYQIGLFRVASMASEKMKILELPFASGTMSMLVLLPDEVSGLEQLESIINFEKLTEWTSSNVMEERKIKVYLPRMKMEEKYNLTSVLMAMGITDVFSSSANLSGISSAESLKISQAVHAAHAEINEAGREVVGSAEAGVDAASVSEEFRADHPFLFCIKHIATNAVLFFGRCVSP", "values": [{"measurement": "mean activation percentage (CD134/CD137 double-positive of total CD4)", "setting": "[1]", "value": 1.25, "unit": "%"}, {"measurement": "positive T cell lines", "setting": "[2]; Donor #1180, positive/tested T cell lines", "value": "13/24"}, {"measurement": "specific T cell lines", "setting": "[2]; among 96 T cell lines tested for each antigen, four healthy donors, specific = spot count twofold over control, minimum difference 25 spots", "value": 58}, {"measurement": "precursor frequency of antigen-specific CD4 T cells", "setting": "[2]; four healthy donors, estimated with Poisson distribution", "value": 5, "unit": "cells/M"}]}]}
